From patent publication US20160185865A1 (Dana-Farber, published 2016)
Positions count from the first letter of the chain named. Names may count otherwise.

T1: human CC chemokine receptor 4 (CCR4) (human, UniProt P51679 1-360)
T1 construct: whole, on cells; also called hCCR4
T1 sequence (looked up): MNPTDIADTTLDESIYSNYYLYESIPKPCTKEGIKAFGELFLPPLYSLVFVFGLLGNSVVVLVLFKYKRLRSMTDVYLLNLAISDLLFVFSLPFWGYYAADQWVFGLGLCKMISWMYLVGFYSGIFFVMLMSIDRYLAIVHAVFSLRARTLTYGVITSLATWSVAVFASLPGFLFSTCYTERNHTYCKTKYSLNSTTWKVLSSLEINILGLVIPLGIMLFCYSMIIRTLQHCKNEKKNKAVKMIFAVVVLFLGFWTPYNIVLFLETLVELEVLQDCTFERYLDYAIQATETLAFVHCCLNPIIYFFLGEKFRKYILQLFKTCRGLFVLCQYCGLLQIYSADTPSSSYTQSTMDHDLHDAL

B1: h1567 VL-CDR3 mutant M1 (H105Q) (Fc fusion, not shown: a dimerising Fc or GST)
scFv: QVQLVQSGAEVKKPGASVKVSCKASGYTFASYYMHWMRQAPGQGLEWIGWINPGNVNTKYNEKFKGRATLTVDTSTNTAYMELSSLRSEDTAVYYCARSTYYRPLDYWGQGTLVTVSSGGGGSGGGGSGGGGSDIVMTQSPDSLAVSLGERATINCKSSQSILYSSNQKNYLAWYQQKPGQSPKLLIYWASTRESGVPDRFSGSGSGTDFTLTISSLQAEDVAVYYCQQYLSSYTFGQGTKLEIK
B2: Antibody 2-3 scFv-Fc (Fc fusion, not shown: a dimerising Fc or GST)
scFv: B1 scFv with Y32A, Y33W, Q228H, L231M
notes: also called Ab2-3 scFv-Fc; Mab 2-3
B3: KW0761 (humanized KM2760 antibody) (antibody, V domains shown)
VH: EVQLVESGGDLVQPGRSLRLSCAASGFIFSNYGMSWVRQAPGKGLEWVATISSASTYSYYPDSVKGRFTISRDNAKNSLYLQMNSLRVEDTALYYCGRHSDGNFAFGYWGQGTLVTVSS
VL: DVLMTQSPLSLPVTPGEPASISCRSSRNIVHINGDTYLEWYLQKPGQSPQLLIYKVSNRFSGVPDRFSGSGSGTDFTLKISRVEAEDVGVYYCFQGSLLPWTFGQGTKVEIK
B4: mAb2-3 (Ab2-3IgG) (antibody, V domains shown)
VH: QVQLVQSGAEVKKPGASVKVSCKASGYTFASAWMHWMRQAPGQGLEWIGWINPGNVNTKYNEKFKGRATLTVDTSTNTAYMELSSLRSEDTAVYYCARSTYYRPLDYWGQGTLVTVSS
VL: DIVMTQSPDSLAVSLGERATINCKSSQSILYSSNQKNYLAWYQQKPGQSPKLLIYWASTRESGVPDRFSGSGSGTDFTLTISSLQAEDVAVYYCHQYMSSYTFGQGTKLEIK
notes: IgG form made by cloning VH and VL into the TCAE5.3 vector (human IgG1); also called APC-labeled mAb2-3

Tests used:
[1] = target: T1, human CC chemokine receptor 4 (CCR4); experiment: FACS titration (GMFI), 0 to 100 µg/mL in two-fold steps; cells not named in the legend
[2] = target: T1, human CC chemokine receptor 4 (CCR4); experiment: FACS, CCR4+ Mac-1 cells, dose dependent binding curve
[3] = target: T1, human CC chemokine receptor 4 (CCR4); experiment: binding curve of FIG. 20B; cells not given

Binder	EC50 [3] [nM]	further results
B1		EC50 (read off the curve) [1]: ~0.5 µg/mL
B2		EC50 [2]: 1.39 nM
B3	2.19	
B4	0.35	
